Where “and” joins values, the source holds several entries; their conditions need not be identical. Identical values can stand only once.
Tests used:
human IL-23 [1] = target: T1, human IL-23 (human, UniProt P29460 23-328); assay: cell-based or functional assay
T1 sequence 1: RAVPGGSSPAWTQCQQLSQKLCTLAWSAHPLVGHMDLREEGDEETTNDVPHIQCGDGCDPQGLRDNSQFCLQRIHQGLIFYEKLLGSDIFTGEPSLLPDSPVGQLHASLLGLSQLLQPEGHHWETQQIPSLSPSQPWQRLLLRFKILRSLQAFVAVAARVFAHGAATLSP
T1 sequence 2: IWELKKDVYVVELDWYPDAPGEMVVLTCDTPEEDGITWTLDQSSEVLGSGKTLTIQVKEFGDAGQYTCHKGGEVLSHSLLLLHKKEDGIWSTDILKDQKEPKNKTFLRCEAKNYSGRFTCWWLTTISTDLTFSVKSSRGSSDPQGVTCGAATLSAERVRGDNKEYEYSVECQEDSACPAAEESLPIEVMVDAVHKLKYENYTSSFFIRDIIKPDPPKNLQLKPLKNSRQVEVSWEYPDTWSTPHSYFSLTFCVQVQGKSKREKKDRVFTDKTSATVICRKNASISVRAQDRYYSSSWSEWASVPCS

cynomolgus monkey IL-23 [2] = target: cynomolgus monkey IL-23 (cynomolgus monkey); assay: cell-based or functional assay
human IL-23 [3] = target: T1, human IL-23; assay: SPR (BIAcore 2000), Antibody I captured on Protein A, IL-23 injected, 37 °C, n=2
Procedure: (§1) Antibody affinity (KD) to human, cynomolgus monkey or rabbit IL-23 is determined using a BIAcore Biosensor 2000 and BIAevaluation software with a 1:1 binding with mass transfer model. A capture protein (Protein A, Calbiochem) is coupled via free amine groups to carboxyl groups on flow cells 1 and 2 of a CM4 biosensor chip using a mixture of N-ethyl-N-(dimethylaminopropyl)-carbodiimide (EDC) and N-hydroxysuccinimide (NHS). Flow cells are monitored with a flow rate of 80 μL/minute using a buffer containing 0.01 M HEPES, pH 7.4, 150 mM NaCl, 0.005% surfactant P20. Antibody I is captured on flow cell 2 to yield a total of 40 to 60 response units (RU). Multiple cycles of increasing concentrations of IL-23 are then injected over flow cells 1 and 2 (0.62 nM to 30 nM for human and monkey IL-23 and 30 nM to 240 nM for rabbit IL-23) followed by a regeneration step using glycine-HCl (pH 1.5) between each cycle. Flow cell 1 is used as a control to monitor non-specific binding of IL-23 and the data reflects flow cell 2 minus flow cell 1. Each cycle includes an antibody capture step followed by injection of IL-23 at one concentration with a 30 minute dissociation period, then regeneration. Two cycles where buffer is injected in place of IL-23, serve as a control for baseline subtraction and correct for drift associated with the dissociation of Antibody I from the protein A surface. Affinity is measured at 37 ° C. The assay is performed 2 times with human, monkey or rabbit IL-23. Antibody I is tested 2 times each with mouse IL-23 at 333 nM, rat IL-23 at 200 nM, human IL-12 at 333 nM, human IL-27 at 500 nM or human IL-35 at 833 nM.
(§2) The on-rate (kₒₙ) and off-rate (koff) for each antigen are evaluated using a 1:1 binding with mass transfer model. The affinity (KD) is calculated from the binding kinetics according to the relationship: KD=koff/kₒₙ.

cynomolgus monkey IL-23 [4] = target: T2, cynomolgus monkey IL-23 (cynomolgus monkey); assay: as above
T2 construct: Construct not described
Procedure: as §1, §2

rabbit IL-23 = target: T3, rabbit IL-23 (rabbit); assay: as above
T3 construct: Construct not described
Procedure: as §1, §2

human IL-27 = target: T4, human IL-27 (human, UniProt Q8NEV9 29-243; Q14213 21-229); assay: SPR (BIAcore), Antibody I captured on Protein A, 37 °C
T4 construct: subunit make-up is from general knowledge
T4 sequence (looked up) 1: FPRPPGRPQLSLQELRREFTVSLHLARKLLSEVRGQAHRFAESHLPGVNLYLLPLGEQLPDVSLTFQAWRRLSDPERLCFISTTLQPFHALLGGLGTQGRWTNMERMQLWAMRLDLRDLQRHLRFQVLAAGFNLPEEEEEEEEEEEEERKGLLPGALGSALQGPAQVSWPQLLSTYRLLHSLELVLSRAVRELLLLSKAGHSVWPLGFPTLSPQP
T4 sequence (looked up) 2: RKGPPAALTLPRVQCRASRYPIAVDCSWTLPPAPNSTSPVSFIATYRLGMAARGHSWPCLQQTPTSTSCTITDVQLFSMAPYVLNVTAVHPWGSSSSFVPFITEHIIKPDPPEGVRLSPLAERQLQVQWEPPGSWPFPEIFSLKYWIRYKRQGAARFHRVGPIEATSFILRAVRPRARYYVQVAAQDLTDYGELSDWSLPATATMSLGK
Procedure: as §1
(§3) Antibody I produces a concentration-dependent binding response with human, cynomolgus monkey, and rabbit IL-23 using this method. Saturation of binding of IL-23 is attained at a concentration of 30 nM (human and monkey) and 240 nM (rabbit) using […] of Antibody I captured on the chip surface.

mouse IL-23 = target: T5, mouse IL-23 (mouse, UniProt Q9EQ14 22-196; P43432 23-335); assay: as above
T5 construct: Construct not described
T5 sequence (looked up) 1: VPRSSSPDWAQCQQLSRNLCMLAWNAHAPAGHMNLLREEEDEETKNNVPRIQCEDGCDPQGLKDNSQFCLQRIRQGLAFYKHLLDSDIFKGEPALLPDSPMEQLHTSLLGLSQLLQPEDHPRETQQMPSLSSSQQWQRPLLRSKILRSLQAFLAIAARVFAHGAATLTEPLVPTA
T5 sequence (looked up) 2: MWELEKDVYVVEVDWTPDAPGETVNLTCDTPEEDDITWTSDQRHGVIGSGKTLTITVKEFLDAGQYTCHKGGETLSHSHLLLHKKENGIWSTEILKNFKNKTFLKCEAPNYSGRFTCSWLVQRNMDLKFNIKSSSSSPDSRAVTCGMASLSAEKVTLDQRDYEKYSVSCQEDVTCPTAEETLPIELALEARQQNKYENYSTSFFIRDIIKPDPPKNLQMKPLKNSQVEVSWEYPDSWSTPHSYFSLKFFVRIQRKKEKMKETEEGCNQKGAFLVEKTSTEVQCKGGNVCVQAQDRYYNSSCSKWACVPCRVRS
Procedure: as §1, §3

human IL-35 = target: T6, human IL-35 (human, UniProt P29459 23-219; Q14213 21-229, limits assumed); assay: as above
T6 construct: subunit make-up is from general knowledge
T6 sequence (looked up) 1: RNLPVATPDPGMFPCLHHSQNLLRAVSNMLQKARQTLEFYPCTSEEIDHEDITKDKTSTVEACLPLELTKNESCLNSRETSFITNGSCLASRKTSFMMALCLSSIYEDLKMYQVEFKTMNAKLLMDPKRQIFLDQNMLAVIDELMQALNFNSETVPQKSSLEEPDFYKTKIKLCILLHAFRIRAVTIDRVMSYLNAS
T6 sequence (looked up) 2: T4 sequence (looked up) 2
Procedure: as §1, §3

human IL-12 = target: T7, human IL-12 (human, UniProt P29459 23-219; P29460 23-328); assay: as above
T7 construct: construct not described
T7 sequence (looked up) 1: T6 sequence (looked up) 1
T7 sequence (looked up) 2: T1 sequence 2
Procedure: as §1, §3

human IL-23 [5] = target: T1, human IL-23; assay: cell-based or functional assay; remark: listed apart in the source

IC50 (pM), in vitro IL-23 neutralization assay, IL-17 production by murine splenocytes (human IL-23 [1]): 90 pM and 74 pM
IC50 (pM), in vitro IL-23 neutralization assay, IL-17 production by murine splenocytes (cynomolgus monkey IL-23 [2]): 110 pM and 130 pM
Kd (human IL-23 [3]): 0.021 nM
koff (human IL-23 [3]): 5.2e-05 s⁻¹
kon (human IL-23 [3]): 2.43e+06 M⁻¹ s⁻¹
Kd (cynomolgus monkey IL-23 [4]): 0.055 nM
koff (cynomolgus monkey IL-23 [4]): 7e-05 s⁻¹
kon (cynomolgus monkey IL-23 [4]): 1.28e+06 M⁻¹ s⁻¹
Kd (rabbit IL-23): 53 nM
koff (rabbit IL-23): 0.00479 s⁻¹
kon (rabbit IL-23): 90000 M⁻¹ s⁻¹
binding result (human IL-27): no binding (tested: 500 nM)
binding result (mouse IL-23): no binding (tested: 333 nM)
binding result (human IL-35): no binding (tested: 833 nM)
binding result (human IL-12): no binding (tested: 333 nM)
fold induction of murine keratin-16 after human IL-23 injection (human IL-23 [5]): 1.23 fold induction
B1: Antibody I (antibody, human IgG4 S228P, kappa, F234A L235A, V domains shown)
VH: QVQLVQSGAEVKKPGSSVKVSCKASGYKFTRYVMHWVRQAPGQGLEWMGYINPYNDGTNYNEKFKGRVTITADKSTSTAYMELSSLRSEDTAVYYCARNWDTGLWGQGTTVTVSS
VL: DIQMTQSPSSLSASVGDRVTITCKASDHILKFLTWYQQKPGKAPKLLIYGATSLETGVPSRFSGSGSGTDFTLTISSLQPEDFATYYCQMYWSTPFTFGGGTKVEIKR
notes: also called IL-23 Antibody

Reference: patent publication US20170275356A1 (Eli Lilly, published 2017)
